According to the supplement of paper PMC6757056:
± gives the standard deviation of the averaged measurements.

B1: library; a variant is named by its letters at N, in order (parent)
chain: GCUGUCACCGGUGUAUUACCCUAGUGGUCGACCGGUCUGAUGAGUCUNNNNNNAGACGAAACAGC

Experiments:
hypoxanthine [1] = variants of: B1; assay: normalized RNA/DNA level with ligand (relative to sTRSVctl = 100) (log10 (% of sTRSVctl)); ligand: hypoxanthine (xanthine aptamer); higher = less ribozyme self-cleavage, higher mRNA level; settings: ligand concentration (+) RNA-Seq: 5 mM, HEK293T, reporter: mCherry (pCS4076), ligand present: yes
How it was run: (§1)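 HEK293T cells received ligand, where used, 1 h before being transfected with 4 µg per 6-well well of library plasmids encoding reporter-linked ribozyme switches. After 72 h, RNA was extracted with EDTA and sequenced. RNA level was derived from RNA reads per DNA read, normalized to a spiked-in non-cleaving sequence or the top sequences, then scaled and log-transformed. Values were ×100 then log10, the top set was 25 sequences, and the minimum was 100 DNA reads.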

hypoxanthine [2] = variants of: B1; assay: normalized RNA/DNA level without ligand (relative to sTRSVctl = 100) (log10 (% of sTRSVctl)); ligand: hypoxanthine (xanthine aptamer); higher = less ribozyme self-cleavage, higher mRNA level; settings: HEK293T, reporter: mCherry (pCS4076), ligand present: no
How it was run: as §1

Variant	normalized RNA/DNA level with ligand (log10) (hypoxanthine [1])	normalized RNA/DNA level without ligand (log10) (hypoxanthine [2])
UUACGG	1.94 ± 0.04	1.85 ± 0.029
CUACGU	1.98 ± 0.067	1.9 ± 0.027
AUACGU	1.91 ± 0.032	1.84 ± 0.042
GUACUA	1.937 ± 0.014	1.86 ± 0.037
UUACUA	1.93 ± 0.039	1.887 ± 0.011
CUACUC	2.039 ± 0.013	1.95 ± 0.025
GUACUC	1.93 ± 0.053	1.92 ± 0.032
UUACUC	1.995 ± 0.0094	2.02 ± 0.038
AUACUC	1.93 ± 0.05	1.96 ± 0.071
CUACUG	1.942 ± 0.0056	1.925 ± 0.0027
GUACUG	1.883 ± 0.0029	1.53 ± 0.056
CUACUU	1.99 ± 0.028	1.83 ± 0.026
GUACUU	1.9422 ± 0.0012	1.889 ± 0.006
UUACUU	1.93 ± 0.025	1.93 ± 0.043
AUACUU	1.92 ± 0.022	1.859 ± 0.0037
GUAGAC	1.89 ± 0.041	1.69 ± 0.025
UUAGAC	1.9 ± 0.083	1.82 ± 0.022
AUAGAG	1.81 ± 0.037	1.31 ± 0.019
CUAGAG	1.88 ± 0.018	1.64 ± 0.023
UUAGAG	1.832 ± 0.0063	1.556 ± 0.011
AUAGAU	1.91 ± 0.063	1.7097 ± 0.00076
GUAGAU	1.87 ± 0.092	1.758 ± 0.00084
UUAGAU	1.9278 ± 0.00084	1.766 ± 0.0096
GUAGCA	1.8839 ± 9.6e-05	1.8 ± 0.023

Variant	normalized RNA/DNA level with ligand (log10) (hypoxanthine [1])	normalized RNA/DNA level without ligand (log10) (hypoxanthine [2])
UUAGCA	1.95 ± 0.025	1.85 ± 0.025
AUAGCC	1.936 ± 0.0032	1.82 ± 0.028
CUAGCC	1.95 ± 0.037	1.86 ± 0.064
UUAGCC	1.95 ± 0.065	1.88 ± 0.025
CUAGCG	1.91 ± 0.068	1.824 ± 0.0032
GUAGCG	1.87 ± 0.02	1.535 ± 0.0049
UUAGCG	1.906 ± 0.018	1.8 ± 0.038
AUAGCU	1.935 ± 0.018	1.83 ± 0.005
CUAGCU	1.987 ± 0.0096	1.93 ± 0.042
UUAGCU	1.97 ± 0.021	1.89 ± 0.023
GUAGGA	1.892 ± 0.002	1.66 ± 0.033
UUAGGA	1.857 ± 0.012	1.66 ± 0.032
AUAGGC	1.91 ± 0.025	1.776 ± 0.0031
CUAGGC	1.94 ± 0.029	1.86 ± 0.086
AUAGGU	1.908 ± 0.016	1.587 ± 0.015
CUAGGU	1.94 ± 0.028	1.88 ± 0.026
UUAGGU	1.92 ± 0.028	1.8 ± 0.031
CUAGUA	1.918 ± 0.0099	1.8 ± 0.049
UUAGUA	1.939 ± 0.017	1.81 ± 0.039
AUAGUC	1.931 ± 0.016	1.923 ± 0.019
GUAGUC	1.976 ± 0.012	1.81 ± 0.05
UUAGUC	1.98 ± 0.0064	1.976 ± 0.015
UUAGUG	1.89 ± 0.048	1.67 ± 0.043
AUAGUU	1.9009 ± 0.0014	1.84 ± 0.055

Variant	normalized RNA/DNA level with ligand (log10) (hypoxanthine [1])	normalized RNA/DNA level without ligand (log10) (hypoxanthine [2])
CUAGUU	1.919 ± 0.0027	1.9151 ± 0.00062
GUAGUU	1.96 ± 0.041	1.87 ± 0.046
UUAGUU	1.952 ± 0.0013	1.85 ± 0.038
CUAUAA	1.9 ± 0.037	1.8 ± 0.0052
GUAUAA	1.87 ± 0.052	1.78 ± 0.02
UUAUAA	1.92 ± 0.0059	1.76 ± 0.041
CUAUAC	1.954 ± 0.014	1.835 ± 0.0098
CUAUAG	1.93 ± 0.019	1.69 ± 0.068
UUAUAG	1.89 ± 0.019	1.67 ± 0.04
AUAUAU	1.9 ± 0.028	1.79 ± 0.045
CUAUAU	1.951 ± 0.014	1.81 ± 0.038
UUAUAU	1.93 ± 0.027	1.85 ± 0.019
AUAUCA	1.936 ± 0.0032	1.81 ± 0.021
CUAUCA	1.92 ± 0.041	1.86 ± 0.029
GUAUCA	1.96 ± 0.049	1.88 ± 0.02
UUAUCA	1.953 ± 0.0031	1.83 ± 0.024
AUAUCC	1.938 ± 0.015	1.876 ± 0.018
CUAUCC	1.93 ± 0.062	1.92 ± 0.049
GUAUCC	1.96 ± 0.025	1.86 ± 0.043
UUAUCC	1.957 ± 0.016	1.929 ± 0.013
CUAUCG	1.956 ± 0.016	1.94 ± 0.033
GUAUCG	1.9 ± 0.042	1.57 ± 0.017
UUAUCG	1.905 ± 0.01	1.78 ± 0.084
AUAUCU	1.89 ± 0.026	1.844 ± 0.016

Variant	normalized RNA/DNA level with ligand (log10) (hypoxanthine [1])	normalized RNA/DNA level without ligand (log10) (hypoxanthine [2])
CUAUCU	1.9 ± 0.075	1.89 ± 0.042
UUAUCU	1.977 ± 0.014	1.86 ± 0.026
CUAUGA	1.95 ± 0.036	1.85 ± 0.042
AUAUGC	1.94 ± 0.0047	1.76 ± 0.018
CUAUGC	1.99 ± 0.044	1.88 ± 0.076
GUAUGC	1.868 ± 0.0093	1.46 ± 0.08
UUAUGC	1.94 ± 0.039	1.874 ± 0.0042
CUAUGU	1.952 ± 0.0085	1.88 ± 0.019
UUAUGU	1.92 ± 0.021	1.794 ± 0.01
AUAUUA	1.868 ± 0.0053	1.82 ± 0.028
GUAUUA	1.92 ± 0.03	1.842 ± 0.017
GUAUUC	1.95 ± 0.073	1.931 ± 0.013
UUAUUC	1.96 ± 0.045	1.936 ± 0.016
UUAUUG	1.897 ± 0.017	1.714 ± 0.0023
AUAUUU	1.903 ± 0.0024	1.89 ± 0.057
CUAUUU	2 ± 0.021	1.93 ± 0.053
GUAUUU	1.94 ± 0.079	1.859 ± 0.018
UUAUUU	1.91 ± 0.033	1.91 ± 0.031
AUCAAA	1.921 ± 0.011	1.79 ± 0.034
CUCAAA	1.919 ± 0.0021	1.785 ± 0.013
AUCAAC	1.99 ± 0.031	1.84 ± 0.028
CUCAAC	1.98 ± 0.052	1.926 ± 0.0052
GUCAAC	1.95 ± 0.02	1.748 ± 0.0031
UUCAAC	1.94 ± 0.044	1.873 ± 0.011

Variant	normalized RNA/DNA level with ligand (log10) (hypoxanthine [1])	normalized RNA/DNA level without ligand (log10) (hypoxanthine [2])
CUCAAG	1.88 ± 0.0045	1.742 ± 0.0067
AUCAAU	1.89 ± 0.038	1.78 ± 0.058
CUCAAU	1.92 ± 0.036	1.792 ± 0.0044
GUCAAU	1.925 ± 0.015	1.8 ± 0.054
AUCACA	1.908 ± 0.0044	1.84 ± 0.023
CUCACA	1.911 ± 0.016	1.83 ± 0.021
GUCACA	1.917 ± 0.002	1.81 ± 0.022
AUCACC	1.98 ± 0.029	1.953 ± 0.011
GUCACC	1.92 ± 0.059	1.9 ± 0.079
UUCACC	1.984 ± 0.015	2 ± 0.05
AUCACG	1.933 ± 0.0027	1.554 ± 0.015
CUCACG	1.93 ± 0.024	1.913 ± 0.0027
GUCACG	1.9 ± 0.025	1.54 ± 0.055
UUCACG	1.93 ± 0.036	1.8 ± 0.031
AUCACU	1.98 ± 0.024	1.884 ± 0.0058
GUCACU	1.977 ± 0.014	1.91 ± 0.041
UUCACU	1.956 ± 0.0023	1.76 ± 0.039
CUCAGA	1.965 ± 0.012	1.8539 ± 0.00065
UUCAGA	1.96 ± 0.037	1.823 ± 0.0059
AUCAGC	1.94 ± 0.024	1.95 ± 0.047
